From patent US10799584B2, “Combination therapies using agents that target tumor-associated stroma or tumor cells and alkylating agents” (BIOMED VALLEY DISCOVERIES, INC., priority 2014, dated 2020) come the findings set out here.

One experiment deals with H460 tumors. Put plainly: H460 xenograft model, M830 with gemcitabine, cisplatin or radiation. Type of experiment: in vivo, nude mice. The settings on record: endpoint 2000 mm^3 or Day 58; logrank. From the text: (§1) The statistical tests were not adjusted for multiple comparisons.
Treatment began on Day 1 in eight groups of nude mice (n=10) with established subcutaneous H460 tumors of 75-126 mm^3. […] The study endpoint was a tumor volume of 2000 mm^3 or the final day, Day 58, whichever came first. […] The median TTE for controls was 15.6 days, establishing a maximum possible TGD of 42.4 days (272%) for the 58-day study.

The subject of a further experiment is HCT116 tumor cells. As to the kind of experiment: HCT116 colorectal carcinoma xenograft model, TEM8 antibodies. The following applies: HCT116 Colon; no combination partner; M830 IP 3 times per week; start at 60-80 mm^3. Type of experiment: in vivo, mice. The method, then: Tumor cells were cultured in RPMI-1640 medium supplemented with 10% fetal bovine serum, 2 mM glutamine, 100 units/mL penicillin G sodium, 100 μg/mL streptomycin sulfate, and 25 μg/mL gentamicin. The tumor cells were grown in tissue culture flasks in a humidified incubator at 37° C., in an atmosphere of 5% CO2 and 95% air.
2.5×10^6 to 5×10^6 HCT116 tumor cells were injected subcutaneously into the flank of mice. Tumor weights were calculated following surgical removal. Treatment was initiated when tumor volume reached 60-80 mm^3. Dosing volume was 10 mL/kg (0.2 mL/20 g mouse).
TEM8 Ab (hIgG1) doses were 5 and 15 mg/kg, three times per week, for 3 weeks. Bevacizumab was dosed at 5 mg/kg, twice per week, for 3 weeks. FIG. 1B and FIG. 1D show mean tumor growth and percent body weight change for each group, respectively, over the time course of the study.

Another experiment deals with H460 cells. As to the kind of experiment: H460 non-small cell lung carcinoma xenograft model, M830 with bevacizumab or paclitaxel. The format is in vivo, athymic nude mice. The settings on record: for % Tumor Reduction vs. combination partner at Day (#): Day 32. How it is done: Animals were monitored for regression responses.
as §1
Cultured H460 cells were harvested during exponential growth and resuspended in phosphate buffered saline at a concentration of 1×10^8 cells/mL. 1.0×10^7 tumor cells were injected subcutaneously into the flank of athymic nude mice. Animals were euthanized when tumors reached the pre-determined volume endpoint of 2000 mm^3 or on the final day (Day 88), whichever came first.

Another experiment relates to DLD-1 tumor cells. Put plainly: DLD-1 colorectal adenocarcinoma xenograft model, first study. The following applies: DLD1 Colon, Day 21. Type of experiment: in vivo, mice. The method, then:
Tumor weights were calculated following surgical removal. […] Irinotecan was given once per week at 60 mg/kg i.v. and bevacizumab was dosed at 5 mg/kg i.p., three times per week.

Where [1] appears, read: combination partner Bevacizumab.

As for `N.N.[Cl][Pt][Cl]` [Cisplatin, cisplatin], the “outcome (survival) compared to vehicle-treated controls” value in the experiment on H460 tumors is recorded as “statistically significant survival benefit”.

For `Nc1ccn([C@@H]2O[C@H](CO)[C@@H](O)C2(F)F)c(=O)n1` [gemcitabine], the “outcome (survival) compared to vehicle-treated controls” value with H460 tumors is recorded as “not statistically different”.

B1: M830: TEM8 monoclonal antibody (hIgG1), VH SEQ ID NO:5, VL SEQ ID NO:6 (antibody, V domains shown)
VH: EVQLVESGGGVVQPGRSVRLSCAASGFTFSTYTMHWVRQAPGKGLEWVAIISNDGSNKYYADPVRGRFTISRDNSKNTLYLQMNSLRAEDTAVYYCVRGSSWYRGNWFDPWGQGTLVTVSS
VL: DIQMTQSPSSLSASVGDRVTIACRASQTISRYLNWYQQKPGKAPKLLIYAASSLQSGVSSRFSGSGSGTEFTLTISSLQPEDFATYFCQQTYSPPITFGQGTRLEIKR
modifications: TEM830 mAb VH; TEM830 mAb VL
Consider B1, for which the “% Tumor Reduction vs. Vehicle at Day 21” value in the experiment with HCT116 tumor cells worked out at 39.5%^; in the experiment on H460 cells (combination partner Bevacizumab, M830 IP 3 times per week), 94.5%^. For the same molecule, the “% Tumor Reduction vs. combination partner at Day (#)” value in the experiment with H460 cells (setting [1]) is reported as 58.5%; in the experiment with H460 cells (combination partner Paclitaxel) it was 94%; in the experiment on DLD-1 tumor cells (setting [1]) it was 48%; with DLD-1 tumor cells (combination partner Irinotecan), 53%. The “regression (vs. Vehicle at Day 21)” value in the experiment with H460 cells (combination partner Paclitaxel) was “(−61%”. The “outcome (survival) compared to vehicle-treated controls” value in the experiment with H460 tumors is reported as “not statistically different”.
